The record followed here is US20230094463A1, “ANTIBODIES THAT DISRUPT THE INTERACTION OF GAL3 AND INSULIN RECEPTOR OR INTEGRINS AND METHODS OF USE THEREOF” (TrueBinding, Inc., priority 2019, published 2023).

Residue numbers refer to the chain shown, from its start. Names may count otherwise.

For assay [1], the target named is T1, human Gal3 (Homo sapiens, UniProt P17931).
T1 construct: His; purchased AcroBio GA3-H5129
In words: Antibody binning assays (competition for binding to Gal3). Particulars: binning per Examples 3 and 18. Here is the method: To determine whether Gal3-binding antibodies with Gal3-INSR blocking activity bind to the same or overlapping regions of the Gal3 molecule, antibody binning assays were performed to assess the ability of antibodies to simultaneously bind Gal3. Amine-reactive probes were loaded onto a Gator biosensor (Probe Life, Palo Alto, Calif.), equilibrated in dH20 for 60 seconds, dipped into 100 μl EDC 0.2M/NHS 0.05M activation buffer for 30 seconds, then dipped into a solution of […] human Gal3-His in 10 mM NaOAc buffer, pH 5 until binding was saturated, and quenched in 1 M ethanolamine pH 8.5 for 300 seconds. Following Gal3-His loading, tips were dipped in 20 μg/mL saturating antibody, then successively dipped into 5 μg/mL competing antibody.
The epitope binning assay was done in a sandwich format on the high-throughput SPR-based Carterra LSA unit (CarterraBio, Salt Lake City, Utah). First, the purified antibodies were diluted to 10 μg/ml concentration in 10 mM NaOAc (pH 5.0) and then were covalently coupled via amine group to HC200M chip activated by EDC and S-NHS to immobilize antibodies to different positions of a 384-spot array. One hundred thirty-eight binning cycles were run on the array of immobilized antibodies. In each cycle, first, human Gal3 (AcroBio GA3-H5129) was injected over the entire array to bind to different antibodies (primary antibody), followed by one antibody (secondary antibody) selected among the panel of 150 anti-GAL3 antibodies tested. At the end of each cycle, the array was regenerated by 10 mM Glycine (pH 2.0) to remove bound antigen and secondary antibody from the array. The data analysis was done using the Epitope software by CarterraBio.

Assay [2] has as its target T2, interaction of Gal3 and INSR (Homo sapiens, UniProt P17931).
T2 construct: 6-histidine tag (linker-spaced); purchased Acro Biosystems (Gal3); Sino Biological (INSR) GA3-H5129; 11086-H08H
In words: ELISA of blocking of Gal3-INSR association by Gal3-binding antibodies. Here is the method:
Positively scoring wells were evaluated for the ability to block association of Gal3 and INSR. To identify Gal3-targeted antibodies with the ability to block the interaction of Gal3 and INSR, purified Gal3 and INSR proteins were incubated in the presence of Gal3-immunization hybridoma supernatants described above, or without antibody, and protein interaction was evaluated by ELISA. Human Galectin-3 protein (Acro Biosystems, GA3-H5129) was diluted in PBS (Corning, 21-030-CM) to a concentration of 3 μg/ml and added to the wells of a 96-well ELISA plate (Thermo Fisher, 44-2404-21). After incubating the plate at 4° C. overnight, the plate was washed three times with PBST (PBS with 0.05% Tween 20 [VWR, 0777]). The plate was then blocked for an hour with 2% BSA (EMD Millipore, 126609) in PBST at room temperature with gentle rocking. Thereafter, the 2% BSA in PBST was discarded and antibody or inhibitor (3-fold dilutions beginning at 20 μg/ml, 60 μg/ml, or 180 μM) in 2% BSA in PBST was added to the wells. Afterwards, 6 μg/ml of human Insulin Receptor (Sino Biological, 11086-H08H) in 2% BSA in PBST was added to the antibody or inhibitor in the wells in a 1:1 ratio. The plate was incubated for an hour at room temperature with gentle rocking. Thereafter, the plate was washed three times with PBST, and 0.3 μg/ml of human INSR Biotinylated Antibody (R&D Systems, BAF1544) in 2% BSA in PBST was added to the wells. The plate was incubated for an hour with gentle rocking and then washed three times with PBST. Avidin-HRP (1:2000) was then added to the wells. The plate was incubated at room temperature for an hour with gentle rocking and then washed three times with PBST. TMB substrate (Thermo Scientific, 34029) was then added to each well. The reaction was stopped with 1M HCl (JT Baker, 5620-02) and read using a plate reader (Molecular Devices) at absorbance of 450 nm.
Background: ELISA stands for enzyme-linked immunosorbent assay.

Assay [3] has as its target T3, Gal3 peptides (SEQ ID NOs: 3-26) (Homo sapiens, UniProt P17931).
T3 construct: a library of 24 amino acid peptides representing portions of Gal3; purchased LifeTein custom order
The assay is described as follows: Gal3 peptide library binding ELISA (epitope mapping). The following applies: for binding to Gal3 Peptide 1: Peptide 1 (SEQ ID NO: 3), amino acids 1-20 of Gal3; for binding to Gal3 Peptide 6: Peptide 6 (SEQ ID NO: 8), amino acids 51-70 of Gal3; for binding to Gal3 Peptide 7: Peptide 7 (SEQ ID NO: 9), amino acids 61-80 of Gal3. The procedure:
(§1) To identify the epitopes to which Gal3 antibodies with and without Gal3-INSR blocking activity bound, a library of 24 amino acid peptides representing portions of Gal3, depicted in FIG. 27, was produced and the ability of each peptide to bind Gal3 antibodies was evaluated by ELISA. At least 2 μg/ml of hGal3 peptide in 50 μl of PBS or 0.1 μg/ml of full-length human Gal3 protein (GenScript) and human Galectin-3 protein (Acro Biosystems, GA3-H5129) were diluted in PBS (Corning, 21-030-CM) to concentrations of at least 2 μg/ml or 0.1 μg/ml, respectively, and added to the wells of a 96-well ELISA plate (Thermo Fisher, 44-2404-21). After incubating the plate at 4° C. overnight, the plate was washed three times with PBST (PBS with 0.05% Tween 20 [VWR, 0777]). The plate was then blocked for an hour with 2% BSA (EMD Millipore, 126609) in PBST at room temperature with gentle rocking. Thereafter, the 2% BSA in PBST was discarded and human Galectin-3 hybridoma supernatants or antibodies were diluted in 2% BSA in PBST to concentrations of at least 0.1 μg/ml and added to the wells. The plate was incubated for an hour at room temperature with gentle rocking and then washed three times with PBST. Afterwards, Goat Anti-Mouse IgG-HRP (Jackson ImmunoResearch, 115-036-1461) or Goat Anti-Rat IgG HRP (Abcam, ab205720) diluted in 2% BSA in PBST (1:4000) were added to the wells. The plate was incubated for 30 minutes to 1 hour at room temperature with gentle rocking and then washed three times with PBST. TMB substrate (Thermo Scientific, 34029) was then added to each well. The reaction was stopped with 1M HCl (JT Baker, 5620-02) and read using a plate reader (Molecular Devices) at absorbance of 450 nm.
(§2) Human Gal3 peptides (LifeTein, custom order) and human Gal3 proteins (R&D Systems, 8259-GA; TrueBinding, QCB200349) were diluted in PBS (Corning, 21-030-CM) to concentrations of at least 100 μg/mL (peptides) or 1 μg/mL (proteins), and added to the wells of several 96-well ELISA plates (Thermo Fisher, 44-2404-21). After incubating the plates at 4° C. overnight, the plates were washed three times with PBST (PBS with 0.05% Tween 20 [VWR, 0777]). The plates were then blocked for an hour with 2% BSA (EMD Millipore, 126609) in PBST at room temperature with gentle rocking. Thereafter, the 2% BSA in PBST was discarded and Gal3-binding antibodies (reformatted hIgG4 [S228P]) were diluted in 2% BSA in PBST to concentrations of 5 μg/mL and added to the wells. The plates were incubated for an hour at room temperature with gentle rocking and then washed three times with PBST. Afterwards, Peroxidase AffiniPure F(ab′)2 Fragment Goat Anti-Human IgG (H+L) polyclonal antibody (Jackson ImmunoResearch, 109-036-003), was diluted in 2% BSA in PBST (1:4000) and added to the wells. The plates were incubated for 1 hour at room temperature with gentle rocking and then washed three times with PBST. TMB substrate (Thermo Scientific, 34029) was then added to each well. The reaction was stopped with 1M HCl (JT Baker, 5620-02) and read using a plate reader (Molecular Devices) at absorbance of 450 nm.

The subject of assay [4] is Gal3 peptides (SEQ ID NOs: 3-26). The description is as above. On the set-up: species or system human. Here is the method:
as §1, §2

T1 sequence (P17931 whole entry): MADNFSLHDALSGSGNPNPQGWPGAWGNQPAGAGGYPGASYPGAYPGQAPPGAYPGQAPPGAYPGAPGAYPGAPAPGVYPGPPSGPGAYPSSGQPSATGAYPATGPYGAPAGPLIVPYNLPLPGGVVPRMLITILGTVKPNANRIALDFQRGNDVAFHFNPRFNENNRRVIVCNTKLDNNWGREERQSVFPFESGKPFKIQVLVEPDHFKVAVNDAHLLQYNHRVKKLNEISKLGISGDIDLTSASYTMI
T2 sequence (P17931 2-250 limits assumed): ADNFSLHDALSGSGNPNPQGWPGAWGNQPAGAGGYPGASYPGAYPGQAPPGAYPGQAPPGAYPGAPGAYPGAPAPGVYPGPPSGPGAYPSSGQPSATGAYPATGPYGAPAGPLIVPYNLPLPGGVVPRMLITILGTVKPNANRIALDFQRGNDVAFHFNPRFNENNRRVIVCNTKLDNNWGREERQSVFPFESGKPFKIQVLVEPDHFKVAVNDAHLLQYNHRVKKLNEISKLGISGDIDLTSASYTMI

B1: 12G5.D7: anti-Gal3 monoclonal antibody (antibody, V domains shown)
VH: QVQLKQSGAELVRPGASVKLSCKASGYTFTDYYINWVKQRPGQGLEWIARIYPGTGNTDYNEKFKGRATLTAEKSSSTAYMQLSSLTSEDSAVYFCARFAYYYGSGGYFDYWGHGTTLTVSS
VL: DILMTQSPSSMSVSLGDTVSITCHASQGINSNMGWLQQKPGKSFKGLIYHATNLEDGVPSRFSGSGSGADYSLTISSLESEDFADYYCVQYAQFPPTFGSGTKLEIK
As to B1, the “epitope bin (competitive binding to Gal3)” value (shortened to “epitope bin”) in assay [1] is recorded as “bin 10”. Also, the “Gal3-INSR blocking activity (in words)” value in assay [2] is on record as “poorly block”.

B2: 2D10.2B2: anti-Gal3 monoclonal antibody (antibody, V domains shown)
VH: QVQLQQSGPELVKPGASVKISCKASGYTFTDYYINWVKQRPGQGLEWIGWIYPGSNDTKYNEKFKGKATLTVDTSSSTAYMQLGSLTSEDSAVYFCANYFGCSGWFFDVWGTGTTVTVSS
VL: DIVMTQAAFSNPVTLGTSASISCRSSKSLLHSDGITYLYWYLQRPGQSPQLLIYRMSNLASGVPDRFSGSGSGTDFTLRISRVEAEDVGVYYCAQMIEFPLTFGAGTILELK
Consider B2, for which, in assay [1], the “epitope bin” value is given as “bin 3”. Further, in assay [3], the “binding to Gal3 Peptide 1” value is recorded as “bound”; the “binding to Gal3 Peptide 6” value is “bind and bound”; the “binding to Gal3 Peptide 7” value was “bound”.

B3: 4A11.2B5: anti-Gal3 monoclonal antibody (antibody, V domains shown)
VH: QVQLQQSGPELVKPGASVKISCKASGYSFTNYYIHWVKQRPGQGLEWIGWIYPGSGNTNYNEKFKGKATLTADTSSSTTNMQLSSLTSEDSAVYYCSTAPGGFDVWGSGTTVTVSS
VL: B2 VL with I97L, I108K
On to B3, for which the “epitope bin” value in assay [1] is given as “bin 3”. Further, the “binding to Gal3 Peptide 6” value in assay [3] is “bind and bound”.

B4: F846TC.14A2: anti-Gal3 antibody (antibody, V domains shown)
VH: QIQLVQSGPELKKPGETVKISCKASGYTFTNYGMNWVKQAPGKGLKWMGWINTYTGEPTYAGDLKGRFAFSLETSASTAYLQINNLKNEDTATYFCVRYTMDYWGQGTSVTVSS
VL: QAVVTQESALTTSPGETVTLTCRSSTGAVTTSNYANWVQEKPDHLFTGLIGGINNRVPGVPARFSGSLIGDKAALTITGAQTEDEAIYFCALWYSNHWVFGGGTKLTVL
With B4, the “binding to Gal3 Peptide 8” value in assay [4] (Peptide 8 (SEQ ID NO: 10)) is given as “bind”. In assay [3], the “binding to Gal3 Peptide 1” value was “bind and bound”; the “binding to Gal3 Peptide 7” value was “bind and bound”.

B5: F846C.1F5: anti-Gal3 antibody (antibody, V domains shown)
VH: QIQLVQSGPELKKPGETVKISCKASGYTFTNYGMNWVKQAPGKGLKWMGWINTYTGEPSYADDFKGRFAFSLETSASTAYLQINNLKNEDMATYFCARWGGYDGDYYAMDYWGQGTSVTVSS
VL: NIMMTQSPSSLAVSAGEKVTMSCKSSQSVLYSSNQKNYLAWYQQKPGQSPKLLIYWASTRESGVPDRFTGSGSGTDFTLTISSVQPEDLAVYYCHQYLSSLTFGAGTKLELK
With B5, the “binding to Gal3 Peptide 17” value in assay [4] (Peptide 17 (SEQ ID NO: 19)) is on record as “bind”. Also, the “binding to Gal3 Peptide 6” value in assay [3] was “bind and bound”.

B6: 13G4.2F8: anti-Gal3 monoclonal antibody (antibody, V domains shown)
VH: QVQLQQPGAELVKPGASVKLSCKASGYTFTSYWMHWVKQRPGQGLEWIGMIHPNSGSTDYNEKFKNKATLNVDKSSSTAYIQLSSLTSEDSAVYYCTRWGIYYYARDYWGQGTTLTVSS
VL: DIVMTQSQKFMSTSVGERVSITCKASQNVGTNVAWYQQKAGQSLELLIYGASNRHTGVPDRFTGSGSGTDFTLTITNVQSEDMTNYFCEQYSNFPLTFGAGTKLELK
With B6, the “Gal3-INSR blocking activity (in words)” value in assay [2] is on record as “poorly block”.

B7: 24D12.2H9: anti-Gal3 monoclonal antibody (antibody, V domains shown)
VH: QVQLKQSGPGLVQPSQSLSITCTVSGFSLTSYGVHWVRQAPGKGLEWLGVIWSGGSTDYNAAFMSRLSISKDNSKSQVFFKMNSLQADDTAIYYCAKSPDGYDVAWFGYWGQGTLVTVSA
VL: DIVMTQSHKFMSTSVGDRVSITCKASQDVRTAVAWYQQKPGQSPKLLIYWASTRHTGVPDRFTGSGSGTDFTLTLSNVQSEDLADYFCQQYSSYPWTFGGGTKLEIK
As for B7, in assay [2], the “Gal3-INSR blocking activity (in words)” value is “poorly block”.
